For assay [1], the target named is HpNikR mutant M5 (H74G, H75G) (Helicobacter pylori). In words: crystal structure.
Assay [2] has as its target HpNikR mutant M6 (C96S) (Helicobacter pylori). In words: crystal structure.

A word on the stoichiometry N: it is the number of molecules, sites or subunits per partner or assembly.

As for “HpNikR mutant M5 (H74G, H75G) (natural protein)”, in assay [1], the stoichiometry N was 4.

“HpNikR mutant M6 (C96S) (natural protein)” had a stoichiometry N in assay [2] of 4.

The values above are taken from article PMC2875016.
